# In the domain aggregation screens of Martell et al. (2025):
# Test: soluble fraction after stress (log2 fold change); higher = more stays soluble; pooled small domains, quantitative proteomics
# Details: stress: pH 4
# Method in brief: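 Small protein domains from pooled custom libraries were exposed to pH 4, then quantified with high-throughput quantitative proteomics. The fold change in how much of each domain remains soluble is read as aggregation propensity. It is given as log2, with higher values meaning more stayed soluble.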
row,Sequence,soluble fraction (log2)
1,HMYELDIYPNPAIDKINVLLPSSTTLPVKVEIYDIMGKKVNSLLTTKKAFTIETDQFEKGIYFVKA,0.187
2,HMNTELFTKNLFNKLEVLLGEKNWKSKTAQLLNISSDAFYKKIRNESQLNLHELLLIKDTFKISIDALLDE,-0.929
3,HMDLMKKTLTKEMLLIDFMKQQFPDSSTNKLRKMLSSGRVKINNLITHKAKSQLKLGDIFELANKPHD,0.124
4,HMTKDVIEIVDGNKFVFHKTIATDSVSSVINKYHISEADFRTWNELTGDMKVGEEYIVQLSLH,-0.576
5,HMAKITERVMGSAALRDYDPNYLPDEVLKALDGYPPFDGYVYKDGILYARVKIGDTFFIIPPI,-1.84
6,HMDPERLDQLQNPDPAVRREAIIALGRSKDLAALPELAKVYKNDPVPELRELARQAGRYIQQENRP,0.254
7,HMFPELDEEEQKITKLLQAQNDLPANIIAVKTALNIGTTQAKLFSLEMKGVVKPYAGGFYHLL,0.0183
8,HMTTGGAEELGRTERKIVEQVGRGLSNREIAQVLGLSEGTVRNYLSTILGKLGLRDRTQLAIWSVQTGFAA,-0.371
9,HMINDPSALGQRAFVDELLWMAGYVPEKIEIYQTLPNNSRVYRVKLDSVNGGFIFIRWDKKKKEHYV,-0.444
10,HMIKKLDIEPIIKSVVDDFNNIYKLKRGITISYLNDGKNKYFINGIENRIEQIIANLLDNSISFSEDNKDV,0.122
11,HMNEKMKEIGLRIKELRELSDISAQGMADHLKIPLETYQEYEDGKKDIPASILFEISQKMEVDMGLLLTGE,-0.253
12,HMTVPTEVALELMHATALEDNEQRILYIASFKEKHREHLHATIEVDGQEVTLARYADLVATGAYL,-2.15
13,HMLIPADETEAKVLSVLSREPLHVDEIRNQAGLPIEKISATLALMELKGMVRQVGGMNYVSV,-0.48
14,HMQISGSEELEKIVQTVLEKNTDVVEEYKSGKTKVFAFLMGQVMKESRGKANPRLAKDILEKFLA,0.177
15,HMSETEWGEIYRKVMAAGLIPARSVRERLLALPSIEPLLQAAEAAGSKGMLDETLLDSLLSKT,-0.539
16,HMLPDSQLMKEATAWFMRQAADDFSGAERRRLDAWRAQSPAHARAYHQVQALWNAPELQQAAAR,-0.0106
17,HMEHIEVDTSHIAVGSKVKHKAFGLGEITDKGNTYVFVKFDGQAIPKKFQFPGAFTQGFLTK,0.154
18,HMSSVGELEVGNIFEGTVNSVRGGKVLLALGNGQMVLAQMDGRVNITPGSSMFFQVKSNDGETVAIRPYTG,0.156
19,HMLEAMDSDEAAKVIEQIVNERADFVRSKGMGAIGPLMGPVMGALRGKVDGKQANELLTAAIKKLL,0.177
20,HMDTRSSARKALDAVNLLLETYGAKAYQHSYEIAGRRQQFQTPGDFMAFRSRLMAEVATEENAARINA,≥ 0.43
21,HMTSTEQEILIEHMVDRLPALRKKYGISQTELGEKIGLSRQTISAIERKTTPLTWTTMLAILMFFT,-0.425
22,HMWGQDVLFTIDKKEFKGKLLEQSDKHTTFLPDGQKTPQKIPNRLIKEIHLGSNKIIDFGNDFLI,0.0314
23,HMITLPDFVGKDVETVKAWAKENGITLIVNKVEDSAKKDTVISQTPTTYDYSKIMKGSSFTVNVAKE,0.0768
24,HMGFPAPFDGKAVAELRRRLGLTRRGLAEELSVSPSTVDKWEQGDVALRSPALTILKILWHQGLKALPP,≥ 0.43
25,HMTYFDIAPELLTVYKEINDIPRDINQIVRKTGLSINEVSYKTMILQLEDKIVELPGQRFIRNS,-0.815
26,HMLNDKLQTLFSLFPAVDKDLKKKGVTRQILWEQYKRNHPDGVGRSQFNYYYAQWKDQVNPT,0.22
27,HMAPAPYLVKVTANKLNIRSGPGTNYKIQGAITDKGTYTIVDTQGRWGKLKSGAGWIYLNYTKK,0.22
28,HMGTTTPPATRKGKVTSSFLNVRSGPSTANAKVAELKQNAVVTIYETSSNGWHRIGVNQWVIGTNIQE,-0.121

row,Sequence,soluble fraction (log2)
1,HMGRRERKKLQSRRAIIEAAVTEFKEKGFREASVADIMTRADLGLGTFYNYFQSKEDILMSLLS,-0.0713
2,HMPTTLEGIEKYLSSGLIKGIGPHLAGKLVEAFGTRVFEVVEHQPERLRTVGGIGRTRAESITSAWRDQ,-0.141
3,HMFEEPYLATYPVLIDPKLAFNVLDTMLEGLEVKMDQDEETGAISVLAPASIHTKITEYLDALSKQ,-1.74
4,HMRLANGIGTVYKLSGNRRNPYIVRKTTGWEIDEESGKAKQKYITIGYAPTRAKGLEMLMDYNKNP,0.22
5,HMQITAPVQKIDGVEYYMHKVEQGQTLYSISKLYNVGVKEIQKANQLGTEGIQLGQVLKVRKGG,0.00111
6,HMKEETYHYTVRYVTDGGDILASYEGKATKDSVFFPEVKTFDGYTAVRGEEPMFHLVSDHAVFQIVYQKNG,0.204
7,HMNEDTEDIKNINSLVNKLTENNFDIIRDSIVKLINKEHLIPYIIETIIEKSILHHRYVHLYVSILKE,-0.119
8,HMHHDDHNQQEEIKEKLLAMVADGERHHVTEVRQLDEDWDMVTKVMKELMDEEQLLMDGSYLILSA,-0.551
9,HMTVSLLQTRQRLQALADLGHYKGDLGAAWGPDAIEALKKAQATLGVTVDGKWGPQTEDAIQVALKVQ,-0.0459
10,HMRLSDSEFESIENAIKEKLENSALTADVLVKELSFDEDKIWKVIRWLEDAEKISEDEAGTLLWKPR,-0.76
11,HMVPQAVQDIKAYLASGALPYIGPATAKKIVAMFGSDALDVIAEHPEQLTAIRGLNEEKANAIHQEFRRQF,0.0364
12,HMDTETLIDKYQLNASEAAVLRFMDKNRDSLRDLGIRDVARASYVSTATIVNMAKKIGYSGYSELVFAYGS,-0.545
13,HMTRQRQLIYNIIQRADDHPTAEMIYARAKAEMPSIAFGTVYRNLKLMVDAGEILHIPVAGEPDRYDK,0.142
14,HMVYNQYILTQSVRLREEPGISGRVIRLLETGTTVELVDTVVVNKDDYDWVWVKLSDGAVGWIIKSAIDI,-1.03
15,HMVEPLIVRNFSINYADIDKLETKIKDYISNSDKSGVNRGRVTSDTRTNMLIVTETASKLAQVEQLLKALD,-0.591
16,HMNEWSIDINLADEKQWTAKTKLSPAIIQNIIRYKNYLGGFTNLNQIKKVYGFTEANYYLLKPHLQLGK,-0.386
17,HMQLDLTSTLDHMYKQMRNDHPRALLMAVEKEMVLRALKETDGNQLRASDILGISRSTLRKRIEEFDINS,-0.257
18,HMVAFYATPKERGIYDDAETYREGDIVSIADGSRWIYVNPTATAGNDPADGSVYWERMSGAATGP,-0.127
19,HMVRKGEINFDQLSVRARNALRNMNILFEKEILKLTEYDLKSIPNLGVKTTNELLSYIKRLQTNQKEE,-0.653
20,HMGKKQLVVDLQSIITDVPAALKSYGLEIGQDGKSLIYTYDTKGERTGITTLLNDLQKAGLQMTDMKTQQ,-0.0755
21,HMGNEVMYRQDLSEQELLSFIKKYTGQDEVTHIVVGAPKQRDNTPSPVETKITPFVVQLKAQFPDVNVV,-0.217
22,HMEASVNAPMPGKIVSVSVSEGQQVNAGDVLLILEAMKMQNEITADAAGTVKAINVNAGQSVKNGDSLVIL,-0.586
23,HMNLLSPREKQSLTLYASGLTLREVASELKLSPNSVGKFISRGKFKLNKSGAIVNSKTSIYLELKKRNLI,0.108
24,HMTIYLSENIKRLRLEKELTQETLSEFLGVTSQSVSNWERGESYPDITMLPEIADFFKVSVDELLGVNRAE,-1.66
25,HMQMKDRILRIMEHEGISPSKFAEEIGIQRSAMSHIISGRNNPSLDVLTKIMQRFTYVDTDWLLFGKGSMV,-0.334
26,HMNTRWDDAAQTWLRKVIEQQPVLVQISAAKRLRDQAEQRAREAGEEVVTEQHVKRAGLELGFGEP,-0.239
27,HMAATNVKVPDLKGWDYNNAVGKYGDKLSFVKKSIYSDSVSKGIIIYNARVGETVAQGTTIEVTVSLGPKG,0.0127
